Reference: patent US20220401544A1

How the values were obtained:
[1] = molecular target: N. meningitidis serogroup B factor H binding protein (FHbp, LP2086) variant A29 (Neisseria meningitidis serogroup B); test: MEASURE flow cytometry, median over MenB isolates expressing A29
[2] = molecular target: N. meningitidis serogroup B factor H binding protein (FHbp, LP2086) variant B44 (Neisseria meningitidis serogroup B); test: MEASURE flow cytometry, median over MenB isolates expressing B44
[3] = molecular target: N. meningitidis serogroup B factor H binding protein (FHbp, LP2086) variant A19 (Neisseria meningitidis serogroup B); test: MEASURE flow cytometry, median over MenB isolates expressing A19
[4] = molecular target: N. meningitidis serogroup B factor H binding protein (fHBP, LP2086) variant B52 (Neisseria meningitidis serogroup B) (UniProt E6MV22)
[5] = molecular target: N. meningitidis serogroup B factor H binding protein (fHBP, LP2086) variant B07 (Neisseria meningitidis serogroup B) (UniProt E6MV22)
[6] = molecular target: N. meningitidis serogroup B factor H binding protein (fHBP, LP2086) variant A02 (Neisseria meningitidis serogroup B)
[7] = molecular target: N. meningitidis serogroup B factor H binding protein (fHBP, LP2086) variant B13 (Neisseria meningitidis serogroup B) (UniProt E6MV22)
[8] = molecular target: N. meningitidis serogroup B factor H binding protein (fHBP, LP2086) variant A42 (Neisseria meningitidis serogroup B)
[9] = molecular target: N. meningitidis serogroup B factor H binding protein (fHBP, LP2086) variant B107 (Neisseria meningitidis serogroup B)
[10] = molecular target: N. meningitidis serogroup B factor H binding protein (fHBP, LP2086) variant B08 (Neisseria meningitidis serogroup B) (UniProt E6MV22)
[11] = molecular target: N. meningitidis serogroup B factor H binding protein (fHBP, LP2086) variant A63 (Neisseria meningitidis serogroup B)
[12] = molecular target: N. meningitidis serogroup B factor H binding protein (fHBP, LP2086) variant A76 (Neisseria meningitidis serogroup B)
[13] = molecular target: N. meningitidis serogroup B factor H binding protein (fHBP, LP2086) variant B05 (Neisseria meningitidis serogroup B) (UniProt E6MV22)
[14] = molecular target: N. meningitidis serogroup B factor H binding protein (fHBP, LP2086) variant A28 (Neisseria meningitidis serogroup B)
[15] = molecular target: N. meningitidis serogroup B factor H binding protein (fHBP) variant B10 (Neisseria meningitidis serogroup B)
[16] = molecular target: N. meningitidis serogroup B factor H binding protein (fHBP) variant A40 (Neisseria meningitidis serogroup B)
[17] = molecular target: N. meningitidis serogroup B factor H binding protein (fHBP) variant A52 (Neisseria meningitidis serogroup B)
[18] = molecular target: N. meningitidis serogroup B factor H binding protein (fHBP) variant B91 (Neisseria meningitidis serogroup B)
[19] = molecular target: N. meningitidis serogroup B factor H binding protein (fHBP) variant A20 (Neisseria meningitidis serogroup B)
[20] = molecular target: N. meningitidis factor H binding protein (fHBP) variant A10 (Neisseria meningitidis serogroup B)
[21] = molecular target: N. meningitidis serogroup B factor H binding protein (fHBP) variant A08 (Neisseria meningitidis serogroup B)
[22] = molecular target: N. meningitidis serogroup B factor H binding protein (FHbp, LP2086) variant B15 (Neisseria meningitidis serogroup B) (UniProt E6MV22); test: MEASURE flow cytometry, median over MenB isolates expressing B15
[23] = molecular target: N. meningitidis serogroup B factor H binding protein (FHbp, LP2086) variant A12 (Neisseria meningitidis serogroup B); test: MEASURE flow cytometry, median over MenB isolates expressing A12
[24] = molecular target: N. meningitidis serogroup B factor H binding protein (FHbp, LP2086) variant B24 (Neisseria meningitidis serogroup B) (UniProt E6MV22)
[25] = molecular target: N. meningitidis serogroup B factor H binding protein (FHbp, LP2086) variant A22 (Neisseria meningitidis serogroup B)
[26] = molecular target: N. meningitidis serogroup B factor H binding protein (FHbp, LP2086) variant A15 (Neisseria meningitidis serogroup B)
[27] = molecular target: N. meningitidis serogroup B factor H binding protein (FHbp, LP2086) variant A12 (Neisseria meningitidis serogroup B)
[28] = molecular target: N. meningitidis serogroup B factor H binding protein (FHbp, LP2086) variant B03 (Neisseria meningitidis serogroup B) (UniProt E6MV22)
[29] = molecular target: N. meningitidis serogroup B factor H binding protein (FHbp, LP2086) variant A07 (Neisseria meningitidis serogroup B)
[30] = molecular target: N. meningitidis serogroup B factor H binding protein (FHbp, LP2086) variant A19 (Neisseria meningitidis serogroup B)
[31] = molecular target: N. meningitidis serogroup B factor H binding protein (FHbp, LP2086) variant A06 (Neisseria meningitidis serogroup B)
[32] = molecular target: N. meningitidis serogroup B factor H binding protein (FHbp, LP2086) variant B15 (Neisseria meningitidis serogroup B) (UniProt E6MV22)
[33] = molecular target: N. meningitidis serogroup B factor H binding protein (FHbp, LP2086) variant A29 (Neisseria meningitidis serogroup B)
[34] = molecular target: N. meningitidis serogroup B factor H binding protein (FHbp, LP2086) variant B44 (Neisseria meningitidis serogroup B)
[35] = molecular target: N. meningitidis serogroup B factor H binding protein (FHbp, LP2086) variant A56 (Neisseria meningitidis serogroup B)
[36] = molecular target: N. meningitidis serogroup B factor H binding protein (FHbp, LP2086) variant B09 (Neisseria meningitidis serogroup B) (UniProt E6MV22)
[37] = molecular target: N. meningitidis serogroup B factor H binding protein (FHbp, LP2086) variant B16 (Neisseria meningitidis serogroup B) (UniProt E6MV22)
[38] = molecular target: N. meningitidis serogroup B factor H binding protein (FHbp, LP2086) variant B24 (Neisseria meningitidis serogroup B) (UniProt E6MV22); test: MEASURE flow cytometry, median over MenB isolates expressing B24
[39] = molecular target: N. meningitidis serogroup B factor H binding protein (FHbp, LP2086) variant A56 (Neisseria meningitidis serogroup B); test: MEASURE flow cytometry, variant group A56 (only one strain)
[40] = molecular target: N. meningitidis serogroup B factor H binding protein (FHbp, LP2086) variant B03 (Neisseria meningitidis serogroup B) (UniProt E6MV22); test: MEASURE flow cytometry, median over MenB isolates expressing B03
[41] = molecular target: N. meningitidis serogroup B factor H binding protein (FHbp, LP2086) variant A06 (Neisseria meningitidis serogroup B); test: MEASURE flow cytometry, median over MenB isolates expressing A06
[42] = molecular target: N. meningitidis serogroup B factor H binding protein (FHbp, LP2086) variant B16 (Neisseria meningitidis serogroup B) (UniProt E6MV22); test: MEASURE flow cytometry, median over MenB isolates expressing B16
[43] = molecular target: N. meningitidis serogroup B factor H binding protein (FHbp, LP2086) variant A22 (Neisseria meningitidis serogroup B); test: MEASURE flow cytometry, median over MenB isolates expressing A22
[44] = molecular target: N. meningitidis serogroup B factor H binding protein (FHbp, LP2086) variant B09 (Neisseria meningitidis serogroup B) (UniProt E6MV22); test: MEASURE flow cytometry, median over MenB isolates expressing B09
[45] = molecular target: N. meningitidis serogroup B factor H binding protein (FHbp, LP2086) variant A15 (Neisseria meningitidis serogroup B); test: MEASURE flow cytometry, median over MenB isolates expressing A15

Substance: monoclonal antibody MN86-994-11
- FHbp Variant Group MEASURE MFI Median [1]: 5990 MFI
- FHbp Variant Group MEASURE MFI Median [2]: 14800 MFI
- FHbp Variant Group MEASURE MFI Median [3]: 1760 MFI
- fHBP Expression (MFI) [4]: 8730 MFI
- fHBP Expression (MFI) [5]: 1350 MFI
- fHBP Expression (MFI) [6]: 13200 MFI
- fHBP Expression (MFI) [7]: 1850 MFI
- fHBP Expression (MFI) [8]: 1610 MFI
- fHBP Expression (MFI) [9]: 11100 MFI
- fHBP Expression (MFI) [10]: 1560 MFI
- fHBP Expression (MFI) [11]: 10800 MFI
- fHBP Expression (MFI) [12]: 11300 MFI
- fHBP Expression (MFI) [13]: 2920 MFI
- fHBP Expression (MFI) [14]: 4190 MFI
- fHBP Expression (MFI) [15]: < 1000 MFI
- fHBP Expression (MFI) [16]: < 1000 MFI
- fHBP Expression (MFI) [17]: < 1000 MFI
- fHBP Expression (MFI) [18]: < 1000 MFI
- fHBP Expression (MFI) [19]: < 1000 MFI
- fHBP Expression (MFI) [20]: < 1000 MFI
- fHBP Expression (MFI) [21]: < 1000 MFI
- FHbp Variant Group MEASURE MFI Median [22]: 4820 MFI
- FHbp Variant Group MEASURE MFI Median [23]: 2470 MFI
- Strain MEASURE MFI [24]: 6970 MFI
- Strain MEASURE MFI [25]: 3130 MFI
- Strain MEASURE MFI [26]: 3000 MFI
- Strain MEASURE MFI [27]: 2540 MFI
- Strain MEASURE MFI [28]: 3980 MFI
- FHbp Variant Group MEASURE MFI Median [29]: 1100 MFI
- Strain MEASURE MFI [29]: 1380 MFI
- Strain MEASURE MFI [30]: 1930 MFI
- Strain MEASURE MFI [31]: 3370 MFI
- Strain MEASURE MFI [32]: 3780 MFI
- Strain MEASURE MFI [33]: 3840 MFI
- Strain MEASURE MFI [34]: 11300 MFI
- Strain MEASURE MFI [35]: 5000 MFI
- Strain MEASURE MFI [36]: 2090 MFI
- Strain MEASURE MFI [37]: 2350 MFI
- FHbp Variant Group MEASURE MFI Median [38]: 8460 MFI
- FHbp Variant Group MEASURE MFI Median [39]: 5000 MFI
- FHbp Variant Group MEASURE MFI Median [40]: 2940 MFI
- FHbp Variant Group MEASURE MFI Median [41]: 3090 MFI
- FHbp Variant Group MEASURE MFI Median [42]: 2000 MFI
- FHbp Variant Group MEASURE MFI Median [43]: 2500 MFI
- FHbp Variant Group MEASURE MFI Median [44]: 2280 MFI
- FHbp Variant Group MEASURE MFI Median [45]: 2900 MFI
